This note sets out measurements from article doi:10.1101/2024.04.30.591959.

The assay has as its target T1, human propionyl-CoA carboxylase β subunit (human (endogenous in Expi 293F)), P05166.
T1 chain: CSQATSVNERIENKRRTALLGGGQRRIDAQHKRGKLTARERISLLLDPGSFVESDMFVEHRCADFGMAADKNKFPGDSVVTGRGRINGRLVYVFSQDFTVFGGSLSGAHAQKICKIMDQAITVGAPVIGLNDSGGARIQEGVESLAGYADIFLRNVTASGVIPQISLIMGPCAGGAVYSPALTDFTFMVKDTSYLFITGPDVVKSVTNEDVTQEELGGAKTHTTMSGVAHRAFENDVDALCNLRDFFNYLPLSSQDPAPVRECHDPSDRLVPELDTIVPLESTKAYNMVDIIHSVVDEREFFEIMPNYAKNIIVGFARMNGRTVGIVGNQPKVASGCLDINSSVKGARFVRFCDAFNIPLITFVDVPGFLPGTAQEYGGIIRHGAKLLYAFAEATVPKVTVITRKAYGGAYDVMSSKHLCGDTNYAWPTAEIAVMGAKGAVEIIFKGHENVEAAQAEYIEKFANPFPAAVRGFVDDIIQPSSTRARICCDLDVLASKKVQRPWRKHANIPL
Briefly: cryo-EM structure. The note with it: remark: other sources report otherwise.

B1: human propionyl-CoA carboxylase β subunit, P05166 29-539 (natural protein)
chain: CSQATSVNERIENKRRTALLGGGQRRIDAQHKRGKLTARERISLLLDPGSFVESDMFVEHRCADFGMAADKNKFPGDSVVTGRGRINGRLVYVFSQDFTVFGGSLSGAHAQKICKIMDQAITVGAPVIGLNDSGGARIQEGVESLAGYADIFLRNVTASGVIPQISLIMGPCAGGAVYSPALTDFTFMVKDTSYLFITGPDVVKSVTNEDVTQEELGGAKTHTTMSGVAHRAFENDVDALCNLRDFFNYLPLSSQDPAPVRECHDPSDRLVPELDTIVPLESTKAYNMVDIIHSVVDEREFFEIMPNYAKNIIVGFARMNGRTVGIVGNQPKVASGCLDINSSVKGARFVRFCDAFNIPLITFVDVPGFLPGTAQEYGGIIRHGAKLLYAFAEATVPKVTVITRKAYGGAYDVMSSKHLCGDTNYAWPTAEIAVMGAKGAVEIIFKGHENVEAAQAEYIEKFANPFPAAVRGFVDDIIQPSSTRARICCDLDVLASKKVQRPWRKHANIPL
With B1, the stoichiometry N (in general, the number of molecules, sites or subunits per partner or assembly) was 6.
